Where two headings read alike, the source gives them in different places. Numbered stars: 1 amine (or outer) side, 2 acyl side, 3 side chain; on linkers, the order of the positions; unused ones are H or OH. Side chains are listed from the residue outwards. Ends that are not written are not given here. * marks the point of attachment. γGlu = O=C(O)[C@H](CCC(=O)[*:2])N[*:1]; Palmitoyl = CCCCCCCCCCCCCCCC(=O)*
T1: human glucose-dependent insulinotropic peptide (gastric inhibitory polypeptide) receptor (human, UniProt P48546 22-466)
T1 sequence (looked up): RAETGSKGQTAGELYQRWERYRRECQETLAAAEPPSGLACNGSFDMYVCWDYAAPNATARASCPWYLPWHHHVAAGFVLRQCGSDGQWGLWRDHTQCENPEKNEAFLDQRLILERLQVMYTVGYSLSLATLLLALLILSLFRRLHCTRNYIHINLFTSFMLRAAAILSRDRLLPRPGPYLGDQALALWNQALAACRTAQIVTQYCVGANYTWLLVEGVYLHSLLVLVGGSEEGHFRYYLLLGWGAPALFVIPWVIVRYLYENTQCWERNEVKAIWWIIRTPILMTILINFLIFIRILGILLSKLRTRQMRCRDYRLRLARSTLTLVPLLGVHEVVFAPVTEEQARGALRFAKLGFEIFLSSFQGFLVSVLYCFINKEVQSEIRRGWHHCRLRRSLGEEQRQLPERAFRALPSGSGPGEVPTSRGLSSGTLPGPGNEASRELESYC

T2: mouse GLP-1 receptor (mouse, UniProt O35659 22-463)
T2 sequence (looked up): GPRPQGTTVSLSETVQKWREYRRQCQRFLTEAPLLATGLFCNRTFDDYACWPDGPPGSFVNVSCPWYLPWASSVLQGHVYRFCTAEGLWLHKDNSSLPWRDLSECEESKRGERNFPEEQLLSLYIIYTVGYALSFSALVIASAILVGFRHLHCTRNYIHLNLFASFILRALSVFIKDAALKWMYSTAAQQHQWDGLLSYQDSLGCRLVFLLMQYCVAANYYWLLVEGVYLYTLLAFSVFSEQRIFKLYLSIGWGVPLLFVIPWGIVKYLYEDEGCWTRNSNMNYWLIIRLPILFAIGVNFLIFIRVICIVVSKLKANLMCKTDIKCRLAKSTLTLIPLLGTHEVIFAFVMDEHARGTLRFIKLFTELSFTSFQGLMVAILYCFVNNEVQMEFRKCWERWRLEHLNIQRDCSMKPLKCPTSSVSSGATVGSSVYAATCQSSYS

T3: rat GLP-1 receptor (rat, UniProt P32301 22-463)
T3 sequence (looked up): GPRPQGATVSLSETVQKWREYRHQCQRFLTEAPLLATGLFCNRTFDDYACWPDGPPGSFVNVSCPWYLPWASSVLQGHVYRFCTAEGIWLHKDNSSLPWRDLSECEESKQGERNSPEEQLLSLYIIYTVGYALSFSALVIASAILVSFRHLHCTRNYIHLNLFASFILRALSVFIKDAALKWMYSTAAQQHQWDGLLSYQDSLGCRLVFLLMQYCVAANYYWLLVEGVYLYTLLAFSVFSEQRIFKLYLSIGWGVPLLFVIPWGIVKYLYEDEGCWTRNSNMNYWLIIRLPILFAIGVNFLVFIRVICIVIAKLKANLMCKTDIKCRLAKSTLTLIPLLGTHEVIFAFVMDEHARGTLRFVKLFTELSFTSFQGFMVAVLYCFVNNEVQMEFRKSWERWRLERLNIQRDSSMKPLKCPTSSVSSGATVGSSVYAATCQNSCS

B1: G934 (peptide)
peptide: HSQGTFTSDK([γGlu-Palmitoyl])SKYLEGQAAKEFIAWLEKGR-OH
modifications: N-terminus assumed
SMILES: CCCCCCCCCCCCCCCC(=O)N[C@@H](CCC(=O)NCCCC[C@H](NC(=O)[C@H](CC(=O)O)NC(=O)[C@H](CO)NC(=O)[C@@H](NC(=O)[C@H](Cc1ccccc1)NC(=O)[C@@H](NC(=O)CNC(=O)[C@H](CCC(N)=O)NC(=O)[C@H](CO)NC(=O)[C@@H](N)Cc1c[nH]cn1)[C@@H](C)O)[C@@H](C)O)C(=O)N[C@@H](CO)C(=O)N[C@@H](CCCCN)C(=O)N[C@@H](Cc1ccc(O)cc1)C(=O)N[C@@H](CC(C)C)C(=O)N[C@@H](CCC(=O)O)C(=O)NCC(=O)N[C@@H](CCC(N)=O)C(=O)N[C@@H](C)C(=O)N[C@@H](C)C(=O)N[C@@H](CCCCN)C(=O)N[C@@H](CCC(=O)O)C(=O)N[C@@H](Cc1ccccc1)C(=O)N[C@H](C(=O)N[C@@H](C)C(=O)N[C@@H](Cc1c[nH]c2ccccc12)C(=O)N[C@@H](CC(C)C)C(=O)N[C@@H](CCC(=O)O)C(=O)N[C@@H](CCCCN)C(=O)NCC(=O)N[C@@H](CCCNC(=N)N)C(=O)O)[C@@H](C)CC)C(=O)O
B2: G973 (peptide)
peptide: HSQGTFTSDK([γGlu-Palmitoyl])SSYLDSRSARDFVAWLEAGG-OH
modifications: N-terminus assumed
SMILES: CCCCCCCCCCCCCCCC(=O)N[C@@H](CCC(=O)NCCCC[C@H](NC(=O)[C@H](CC(=O)O)NC(=O)[C@H](CO)NC(=O)[C@@H](NC(=O)[C@H](Cc1ccccc1)NC(=O)[C@@H](NC(=O)CNC(=O)[C@H](CCC(N)=O)NC(=O)[C@H](CO)NC(=O)[C@@H](N)Cc1c[nH]cn1)[C@@H](C)O)[C@@H](C)O)C(=O)N[C@@H](CO)C(=O)N[C@@H](CO)C(=O)N[C@@H](Cc1ccc(O)cc1)C(=O)N[C@@H](CC(C)C)C(=O)N[C@@H](CC(=O)O)C(=O)N[C@@H](CO)C(=O)N[C@@H](CCCNC(=N)N)C(=O)N[C@@H](CO)C(=O)N[C@@H](C)C(=O)N[C@@H](CCCNC(=N)N)C(=O)N[C@@H](CC(=O)O)C(=O)N[C@@H](Cc1ccccc1)C(=O)N[C@H](C(=O)N[C@@H](C)C(=O)N[C@@H](Cc1c[nH]c2ccccc12)C(=O)N[C@@H](CC(C)C)C(=O)N[C@@H](CCC(=O)O)C(=O)N[C@@H](C)C(=O)NCC(=O)NCC(=O)O)C(C)C)C(=O)O
B3: G730 (peptide)
peptide: HSQGTFTSDYSKK([γGlu-Palmitoyl])LDSERARDFVAWLVAGG-NH2
modifications: N-terminus assumed
SMILES: CCCCCCCCCCCCCCCC(=O)N[C@@H](CCC(=O)NCCCC[C@H](NC(=O)[C@H](CCCCN)NC(=O)[C@H](CO)NC(=O)[C@H](Cc1ccc(O)cc1)NC(=O)[C@H](CC(=O)O)NC(=O)[C@H](CO)NC(=O)[C@@H](NC(=O)[C@H](Cc1ccccc1)NC(=O)[C@@H](NC(=O)CNC(=O)[C@H](CCC(N)=O)NC(=O)[C@H](CO)NC(=O)[C@@H](N)Cc1c[nH]cn1)[C@@H](C)O)[C@@H](C)O)C(=O)N[C@@H](CC(C)C)C(=O)N[C@@H](CC(=O)O)C(=O)N[C@@H](CO)C(=O)N[C@@H](CCC(=O)O)C(=O)N[C@@H](CCCNC(=N)N)C(=O)N[C@@H](C)C(=O)N[C@@H](CCCNC(=N)N)C(=O)N[C@@H](CC(=O)O)C(=O)N[C@@H](Cc1ccccc1)C(=O)N[C@H](C(=O)N[C@@H](C)C(=O)N[C@@H](Cc1c[nH]c2ccccc12)C(=O)N[C@@H](CC(C)C)C(=O)N[C@H](C(=O)N[C@@H](C)C(=O)NCC(=O)NCC(N)=O)C(C)C)C(C)C)C(=O)O

Columns and labels:
human GLP-1 receptor [1] = molecular target: T4, human GLP-1 receptor (human, UniProt P43220 24-463); test: cell-based or functional assay
[2] = molecular target: T1, human glucose-dependent insulinotropic …; test: cell-based or functional assay
human glucagon receptor [3] = molecular target: T5, human glucagon receptor (human, UniProt P47871 26-477); test: cell-based or functional assay
human GLP-1 receptor [4] = molecular target: T4, human GLP-1 receptor; test: cell-based or functional assay; remark: listed apart in the source
[5] = molecular target: T1, human glucose-dependent insulinotropic …; test: cell-based or functional assay; remark: listed apart in the source
human glucagon receptor [6] = molecular target: T5, human glucagon receptor; test: cell-based or functional assay; remark: listed apart in the source
human GLP-1 receptor [7] = molecular target: T4, human GLP-1 receptor; test: cell-based or functional assay; remark: listed apart in the source
mouse GLP-1 receptor = molecular target: T2, mouse GLP-1 receptor; test: cell-based or functional assay
human GLP-1 receptor [8] = molecular target: T4, human GLP-1 receptor; test: cell-based or functional assay; remark: listed apart in the source
rat GLP-1 receptor = molecular target: T3, rat GLP-1 receptor; test: cell-based or functional assay
rat glucagon receptor = rat glucagon receptor (rat, UniProt P30082 27-485); test: cell-based or functional assay
human glucagon receptor [9] = molecular target: T5, human glucagon receptor; test: cell-based or functional assay; remark: listed apart in the source
mouse glucagon receptor = mouse glucagon receptor (mouse, UniProt Q61606 27-485); test: cell-based or functional assay
[10] = molecular target: human serum albumin (human) (UniProt P02768); test: calculated from the variation in cAMP generation with the HSA concentration
human GLP-1 receptor [11] = molecular target: T4, human GLP-1 receptor; test: cell-based or functional assay; remark: listed apart in the source
[12] = molecular target: T1, human glucose-dependent insulinotropic …; test: cell-based or functional assay; remark: listed apart in the source
human glucagon receptor [13] = molecular target: T5, human glucagon receptor; test: cell-based or functional assay; remark: listed apart in the source

T5 sequence (P47871 26-477): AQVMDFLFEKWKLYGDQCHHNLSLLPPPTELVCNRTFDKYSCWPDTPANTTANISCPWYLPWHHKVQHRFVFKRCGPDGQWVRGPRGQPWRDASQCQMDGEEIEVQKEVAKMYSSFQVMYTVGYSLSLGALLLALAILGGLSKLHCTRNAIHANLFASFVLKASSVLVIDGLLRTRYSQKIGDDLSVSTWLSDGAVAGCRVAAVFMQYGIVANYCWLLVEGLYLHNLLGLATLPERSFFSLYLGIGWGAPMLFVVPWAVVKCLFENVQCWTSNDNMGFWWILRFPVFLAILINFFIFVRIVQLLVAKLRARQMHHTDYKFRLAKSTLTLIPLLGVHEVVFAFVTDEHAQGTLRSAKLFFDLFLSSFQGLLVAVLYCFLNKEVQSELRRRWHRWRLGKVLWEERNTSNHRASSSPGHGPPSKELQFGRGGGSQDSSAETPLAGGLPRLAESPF
Chain of human serum albumin (human) (P02768 25-609 limits assumed): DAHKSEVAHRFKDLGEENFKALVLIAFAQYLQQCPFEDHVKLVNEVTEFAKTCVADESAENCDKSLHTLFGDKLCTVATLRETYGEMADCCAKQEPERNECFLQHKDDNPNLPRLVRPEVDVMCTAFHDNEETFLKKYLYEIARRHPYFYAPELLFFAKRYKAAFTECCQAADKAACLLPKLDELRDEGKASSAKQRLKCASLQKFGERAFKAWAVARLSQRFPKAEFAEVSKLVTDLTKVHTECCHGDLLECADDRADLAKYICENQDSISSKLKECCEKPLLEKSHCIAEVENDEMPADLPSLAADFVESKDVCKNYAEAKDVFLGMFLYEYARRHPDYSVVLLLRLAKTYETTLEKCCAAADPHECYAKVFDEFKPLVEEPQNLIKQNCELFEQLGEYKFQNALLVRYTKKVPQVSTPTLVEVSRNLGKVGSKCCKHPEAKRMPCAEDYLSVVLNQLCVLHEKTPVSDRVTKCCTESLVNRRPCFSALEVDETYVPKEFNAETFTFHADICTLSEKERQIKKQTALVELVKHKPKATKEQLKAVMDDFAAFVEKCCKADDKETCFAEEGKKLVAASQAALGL
Chain of mouse glucagon receptor (Q61606 27-485): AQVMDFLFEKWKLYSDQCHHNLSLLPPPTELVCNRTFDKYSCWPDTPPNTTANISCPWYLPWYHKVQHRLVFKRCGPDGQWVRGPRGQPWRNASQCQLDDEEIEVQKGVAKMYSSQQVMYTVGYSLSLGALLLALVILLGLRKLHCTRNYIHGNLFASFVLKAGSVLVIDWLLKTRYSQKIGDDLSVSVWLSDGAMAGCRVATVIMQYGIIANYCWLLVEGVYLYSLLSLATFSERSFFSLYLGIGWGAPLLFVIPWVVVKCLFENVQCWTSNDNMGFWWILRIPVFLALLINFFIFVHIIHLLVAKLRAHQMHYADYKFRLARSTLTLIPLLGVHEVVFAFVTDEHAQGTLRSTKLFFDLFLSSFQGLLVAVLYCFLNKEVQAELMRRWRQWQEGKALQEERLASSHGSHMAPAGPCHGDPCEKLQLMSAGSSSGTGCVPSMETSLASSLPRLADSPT
Chain of rat glucagon receptor (P30082 27-485): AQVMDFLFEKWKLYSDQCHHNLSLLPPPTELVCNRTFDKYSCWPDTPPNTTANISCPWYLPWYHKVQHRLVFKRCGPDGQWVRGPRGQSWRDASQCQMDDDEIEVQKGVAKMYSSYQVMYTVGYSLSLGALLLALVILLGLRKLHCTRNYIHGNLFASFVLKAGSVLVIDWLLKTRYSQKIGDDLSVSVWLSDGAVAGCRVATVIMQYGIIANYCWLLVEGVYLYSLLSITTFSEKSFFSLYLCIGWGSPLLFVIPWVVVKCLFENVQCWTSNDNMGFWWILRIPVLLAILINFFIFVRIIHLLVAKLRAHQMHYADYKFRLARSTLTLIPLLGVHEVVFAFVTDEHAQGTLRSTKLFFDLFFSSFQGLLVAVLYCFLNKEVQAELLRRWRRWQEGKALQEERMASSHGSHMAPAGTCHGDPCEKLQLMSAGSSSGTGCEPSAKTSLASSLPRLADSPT

| Binder | cAMP EC50 (assay 1) (human GLP-1 receptor [1]) | cAMP EC50 (assay 1) [2] | cAMP EC50 (assay 1) (human glucagon receptor [3]) | cAMP EC50 (assay 1) (human GLP-1 receptor [4]) | cAMP EC50 (assay 1) [5] | cAMP EC50 (assay 1) (human glucagon receptor [6]) | EC50 at the GLP1R at 0% HSA (calculated) (human GLP-1 receptor [7]) | cAMP EC50 (assay 2, 3.2% mouse serum albumin) (mouse GLP-1 receptor) | cAMP EC50 (assay 2, 4.4% human serum albumin) (human GLP-1 receptor [8]) | cAMP EC50 (assay 2, 3.2% rat serum albumin) (rat GLP-1 receptor) | cAMP EC50 (assay 2, 3.2% rat serum albumin) (rat glucagon receptor) | cAMP EC50 (assay 2, 4.4% human serum albumin) (human glucagon receptor [9]) | cAMP EC50 (assay 2, 3.2% mouse serum albumin) (mouse glucagon receptor) | free peptide at 4.4% HSA [10] | cAMP EC50 (assay 1) (human GLP-1 receptor [11]) | cAMP EC50 (assay 1) [12] | cAMP EC50 (assay 1) (human glucagon receptor [13]) |
| --- | --- | --- | --- | --- | --- | --- | --- | --- | --- | --- | --- | --- | --- | --- | --- | --- | --- |
| B1 | 0.018 nM | 3.6 nM | 0.0063 nM |  |  |  |  |  |  |  |  |  |  |  |  |  |  |
| B2 | 0.012 nM | 47 nM | 0.0089 nM |  |  |  |  |  |  |  |  |  |  |  |  |  |  |
| B3 |  |  |  | 0.018 nM | 45 nM | 0.00623 nM | 0.007 nM | 1.1 nM | 0.455 nM | 0.081 nM | 45.1 nM | 0.402 nM | 5.46 nM | 0.85% | 0.0395 nM | 56.6 nM | 0.015 nM |

Reference: US20190185537A1 (AstraZeneca / MedImmune, published 2019)
